According to US20230312754A1 (published 2023):

B1: Multi40 (bispecific antibody)
heavy 1: not shown
light: DIQMTQSPSSLSASVGDRVTITCRASQSISSYLNWYQEKPGKAPKLLIYAASSLQSGVPSRFSGSGSGTDFTLTISSLQPEDFATYYCQQSSHGPLLTFGQGTKLEIKRTVAAPSVFIFPPSDEQLKSGTASVVCYLNNFYPREAKVQWKVDNALQSGNSQESVTEQDSKDSTYSLWSTLTLSKADYEKHKVYACEVTHQGLSSPVTKSFNRGEC
heavy 2: EVQLLESGGGLVQPGGSLRLSCAASGFTFSTYGMHWVREAPGKGLEWLSYISGGSSYIFYADSVKGRFTISRDNSKNTLYLQMNSLRAEDTAVYYCARILRGGSGMDLWGQGTLVTVSSASTKGPSVFPLAPSSKSTSGGTAALGCLVKDYFPEPVTVSWNSGALTSGVHTFPAVLQSSGLYSLTSVVEVPSSSLGTQTYICNVNHKPSNTKVDKKVEPKSC
notes: CEACAM5xCD40, Optimized RUBY format; copies: 2 + 2 + 2
B2: AC_05293 (bispecific antibody, V domains shown)
VH 1: EVQLLESGGGLVQPGGSLRLSCAASGFTFSSYAMSWVRQAPGKGLEWVSGIGSYGGGTYYADSVKGRFTISRDNSKNTLYLQMNSLRAEDTAVYYCARYVNFGMDYWGQGTLVTVSS
VL 1: DIQMTQSPSSLSASVGDRVTITCRASQSISSYLNWYQQKPGKAPKLLIYAASSLQSGVPSRFSGSGSGTDFTLTISSLQPEDFATYYCQQYGRNPPTFGQGTKLEIK
VL 2: ELVMTQSPSSLTVTAGEKVTMSCKSSQSLLNSGNQKNYLTWYQQKPGQPPKLLIYWASTRESGVPDRFTGSGSGTDFTLTISSVQAEDLAVYYCQNDYSYPLTFGAGTKLEIK
VH 2: EVQLLEQSGAELVRPGTSVKISCKASGYAFTNYWLGWVKQRPGHGLEWIGDIFPGSGNIHYNEKFKGKATLTADKSSSTAYMQLSSLTFEDSAVYFCARLRNWDEPMDYWGQGTTVTVSS
B3: AC_05300 (bispecific antibody, V domains shown)
VH 1: B2 VH 2
VL 1: B2 VL 2
VL 2: B2 VL 1
VH 2: B2 VH 1

Legend:
[1] = target: T1, human CEACAM5 (R&D Systems #4128-CM-050) (human, UniProt P06731 35-685); experiment: dual target ELISA: coated hCEACAM-5, detection with biotinylated hCD40-muIg
T1 construct: Bought protein; also called hCEACAM-5; Human CEACAM5-His
T1 sequence (looked up): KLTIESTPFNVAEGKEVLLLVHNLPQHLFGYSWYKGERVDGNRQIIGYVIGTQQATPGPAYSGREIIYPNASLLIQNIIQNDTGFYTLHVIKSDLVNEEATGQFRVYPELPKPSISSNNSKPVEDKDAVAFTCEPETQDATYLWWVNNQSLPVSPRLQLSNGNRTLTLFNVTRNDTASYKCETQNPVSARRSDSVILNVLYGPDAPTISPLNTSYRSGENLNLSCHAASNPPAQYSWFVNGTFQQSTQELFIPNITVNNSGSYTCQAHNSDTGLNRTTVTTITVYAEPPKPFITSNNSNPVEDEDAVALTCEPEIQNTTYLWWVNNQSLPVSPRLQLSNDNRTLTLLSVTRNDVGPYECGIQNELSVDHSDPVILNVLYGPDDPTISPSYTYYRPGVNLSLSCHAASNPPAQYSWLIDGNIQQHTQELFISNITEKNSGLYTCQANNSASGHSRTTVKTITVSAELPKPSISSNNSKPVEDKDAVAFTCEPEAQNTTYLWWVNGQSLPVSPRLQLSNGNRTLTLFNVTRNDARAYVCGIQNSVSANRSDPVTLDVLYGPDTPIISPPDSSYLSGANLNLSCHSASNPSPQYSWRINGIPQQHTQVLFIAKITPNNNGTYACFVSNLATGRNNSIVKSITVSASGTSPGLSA
Description: 96-well plates were coated with 0.5 μg/mL antigen, hCEACAM-1 (2244-CM-050, R&D Systems), hCEACAM-5 (4128-CM-050, R&D Systems), hCEACAM-6 (3934-CM-050, R&D Systems) or CEACAM-8 (9639-CM-050, R&D Systems) in PBS over night at 4° C. After washing in PBS/0.05% Tween 20 (PBST), the plates were blocked with PBST, 2% BSA for at least 30 minutes at room temperature before a second round of washing. RUBY bsAbs, diluted in PBST, 0.5% BSA, were then added and allowed to bind for at least 1 hour at room temperature. […] Finally, a final round of washing was performed and bound complexes detected using SuperSignal Pico Luminescent as substrate and luminescence signals were measured using Fluostar Optima.

[2] = target: T2, biotinylated human CD40-mouse Fc (Ancell #504-030) (human, UniProt P25942 21-193, biotinylated); experiment: Octet (BLI), bsAb in solution, captured CD40mFc-biotin, 1:1 fit
T2 construct: Bought protein; also called biotinylated hCD40-muIg; CD40mFc-biotin; not shown: mouse Fc (muIg) part
T2 sequence (P25942 21-193 limits assumed): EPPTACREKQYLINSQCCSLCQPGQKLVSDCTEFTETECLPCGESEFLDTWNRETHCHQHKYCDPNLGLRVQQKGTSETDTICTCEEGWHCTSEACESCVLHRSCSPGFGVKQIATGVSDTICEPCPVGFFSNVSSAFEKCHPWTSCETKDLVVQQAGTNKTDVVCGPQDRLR
Description: Kinetic measurements were performed in the Octet RED96 platform using several different setups. […] Monomeric human CD40-His-Avi tag (Acro Biosystems #CD0-H5228), monomeric Human CEACAM5-His (R&D Systems #4128-CM-050) or monomeric Cynomolgus CEACAM5-His (Sino Biological #90891-C08H) were ½ serially diluted in 1× kinetic buffer (Sartorius) starting at 500 nM or 100 nM. Bispecific antibodies were 2 serially diluted starting at 50 nM, 25 nM or 10 nM or 1/1.5 serially diluted starting at 15 nM or 5 nM. Binding kinetics was studied in 1× kinetic buffer where association was allowed for 100 sec, 300 sec or 600 sec followed by dissociation for 100 sec, 300 sec or 3600 sec. Sensor tips were regenerated with 10 mM Glycine pH 1.7. Data generated were referenced by subtracting blank or parallel buffer blank, the baseline was aligned to the y-axis, inter-step correction by alignment against dissociation was performed and the data was smoothed by Savitzky-Golay filter in the data analysis software (v9.0.0.14). The processed data was fitted using a 1:1 Langmuir binding model with R² or X² as a measurement of fitting accuracy.
TABLE 12 Summary of kinetic profiles measured in Octet. Bispecific antibodies in solution (25-0.8 nM, 10-2 or 5-0.7 nM.) interacting with captured CD40mFc-biotin. Association was measured for 300 sec or 600 sec and dissociation was measured for 300 sec or 3600 sec

| Binder | binding result [1] | Kd [2] [nM] | koff [2] [s⁻¹] | kon [2] [M⁻¹ s⁻¹] |
| --- | --- | --- | --- | --- |
| B1 | binds |  |  |  |
| B2 |  | 76 | 0.00062 | 8300 |
| B3 |  | 8.5 | 0.0046 | 540000 |
